Data published in article PMC10377357 (2023).

B1: Rps2(1–145)-TurboID [S. cerevisiae] / Pse1 [S. cerevisiae (endogenous in the yeast strains)] (parent complex)
chain 1: MSAPEAQQQKRGGFGGRNRGRPNRRGPRNTEEKGWVPVTKLGRLVKAGKITTIEEIFLHSLPVKEFQIIDTLLPGLQDEVMNIKPVQKQTRAGQRTRFKAVVVVGDSNGHVGLGIKTAKEVAGAIRAGIIIAKLSVIPIRRGYWG
chain 2: MSALPEEVNRTLLQIVQAFASPDNQIRSVAEKALSEEWITENNIEYLLTFLAEQAAFSQDTTVAALSAVLFRKLALKAPPSSKLMIMSKNITHIRKEVLAQIRSSLLKGFLSERADSIRHKLSDAIAECVQDDLPAWPELLQALIESLKSGNPNFRESSFRILTTVPYLITAVDINSILPIFQSGFTDASDNVKIAAVTAFVGYFKQLPKSEWSKLGILLPSLLNSLPRFLDDGKDDALASVFESLIELVELAPKLFKDMFDQIIQFTDMVIKNKDLEPPARTTALELLTVFSENAPQMCKSNQNYGQTLVMVTLIMMTEVSIDDDDAAEWIESDDTDDEEEVTYDHARQALDRVALKLGGEYLAAPLFQYLQQMITSTEWRERFAAMMALSSAAEGCADVLIGEIPKILDMVIPLINDPHPRVQYGCCNVLGQISTDFSPFIQRTAHDRILPALISKLTSECTSRVQTHAAAALVNFSEFASKDILEPYLDSLLTNLLVLLQSNKLYVQEQALTTIAFIAEAAKNKFIKYYDTLMPLLLNVLKVNNKDNSVLKGKCMECATLIGFAVGKEKFHEHSQELISILVALQNSDIDEDDALRSYLEQSWSRICRILGDDFVPLLPIVIPPLLITAKATQDVGLIEEEEAANFQQYPDWDVVQVQGKHIAIHTSVLDDKVSAMELLQSYATLLRGQFAVYVKEVMEEIALPSLDFYLHDGVRAAGATLIPILLSCLLAATGTQNEELVLLWHKASSKLIGGLMSEPMPEITQVYHNSLVNGIKVMGDNCLSEDQLAAFTKGVSANLTDTYERMQDRHGDGDEYNENIDEEEDFTDEDLLDEINKSIAAVLKTTNGHYLKNLENIWPMINTFLLDNEPILVIFALVVIGDLIQYGGEQTASMKNAFIPKVTECLISPDARIRQAASYIIGVCAQYAPSTYADVCIPTLDTLVQIVDFPGSKLEENRSSTENASAAIAKILYAYNSNIPNVDTYTANWFKTLPTITDKEAASFNYQFLSQLIENNSPIVCAQSNISAVVDSVIQALNERSLTEREGQTVISSVKKLLGFLPSSDAMAIFNRYPADIMEKVHKWFA
B2: Rps2(1–145)-TurboID [S. cerevisiae] / Tsr4 [S. cerevisiae (endogenous in YDK11-5A)] (parent complex)
chain 1: B1 chain 1
chain 2: MSKIEELPPSDTDDHSYSSKPGDVFLAFVDAPVKETDDILVEDSFIGGEPKWLHPDSEPPAELLKCGACKSADNMKLLLQAFSPLDDEQMSAIQQRLGINNMSYINPQDDRVLYVFLCTECQRKGNSVRCIRGVKKNKNVDSLSEKMASTSLEKDFQINPFDLSNNSDSKCNAFSSNPFGGANANPFGADSINSNISQSKDEGKKKESATVSAKTARKLHDLQKDKEYDGNKCFKSCLLYVEEETFKNKKPAHLQLPKNLKIDKEALDLTGDEDLEKDPIKLDPRTEKLSKFLDDDTFQKFQEVVGYNPLQVLRYDLGGKPLLYAETKVDILSTVPRPGYNPSSQRIFEMQLMPKMIFDLEEVVSVDNGMEWGTILVFTDVENYMPEFDEHGVGYVEECVKVQWESRT
B3: Rps2(76–145)-TurboID [S. cerevisiae] / Pse1 [S. cerevisiae (endogenous in the yeast strains)] (parent complex)
chain 1: LQDEVMNIKPVQKQTRAGQRTRFKAVVVVGDSNGHVGLGIKTAKEVAGAIRAGIIIAKLSVIPIRRGYWG
chain 2: B1 chain 2

Variants of: B1
Test: TurboID-based proximity labeling; parent: 2; read off a plot

chain 1 R95A, chain 1 R97A, chain 1 K99A was tested. Which enrichment did it give?
Its enrichment is ~0.9 log2 fold change vs controls.

Variants of: B1
Test: TurboID-based proximity labeling; parent: 30; read off a plot

With chain 1 R95A, chain 1 R97A, chain 1 K99A as the variant, how does the response read?
The response was ~26 normalized iBAQ.

Variants of: B2
Test: TurboID-based proximity labeling; parent: 5.9; read off a plot

Which enrichment does the source give for chain 1 R95A, chain 1 R97A, chain 1 K99A here?
Its enrichment is ~5.9 log2 fold change vs controls.

Variants of: B2
Test: TurboID-based proximity labeling; parent: 210; read off a plot

With chain 1 R95A, chain 1 R97A, chain 1 K99A as the variant, how does the response read?
Its response is ~260 normalized iBAQ.

Variants of: B3
Test: TurboID-based proximity labeling; baits expressed from plasmid under the copper-inducible CUP1 promoter; parent: 3.1; read off a plot

With chain 1 R20A, chain 1 R22A, chain 1 K24A as the variant, how does the enrichment read?
Its enrichment is ~-0.4 log2 fold change vs controls.

Variants of: B3
Test: TurboID-based proximity labeling; baits expressed from plasmid under the copper-inducible CUP1 promoter; parent: 100; read off a plot

For chain 1 R20A, chain 1 R22A, chain 1 K24A, which response is on record?
The response was ~9 normalized iBAQ.
